Where a SMILES comes first, the peptide text is derived from it. [ ]: non-standard residue; d: D form. The star is where a group is joined. Dolaproine = CO[C@@H]([C@@H]1CCCN1)[C@@H](C)C(=O)O; Dil = CC[C@H](C)[C@H](NC)[C@@H](CC(=O)O)OC; X1 = C[C@@H](N*)[C@@H](O)c1ccccc1; NMeV = CN[C@H](C(=O)O)C(C)C
B1: P-Cad mab2-L1-P1 (antibody, V domains shown)
VH: QVQLQQSGPGLVKPSQTLSLTCAISGDSVSSQSAAWNWIRQSPSRGLEWLGRIYYRSKWYNDYALSVKSRITINPDTSKNQFSLQLNSVTPEDTAVYYCARGEGYGREGFAIWGQGTLVTVSS
VL: DIQMTQSPSSLSASVGDRVTITCRASQTISNTLAWYQQKPGKAPKLLIYAASNLQSGVPSRFSGSGSGTDFTLTISSLQPEDFATYYCQQYLSWFTFGQGTKVEIK
modifications: maleimide linker-drug L1-P1 on engineered Cys residues of the constant regions (positions not stated), DAR 3.8
B2: P-Cad mab2-L5-P1 (antibody, V domains shown)
VH: B1 VH
VL: B1 VL
modifications: maleimide linker-drug L5-P1 on engineered Cys residues of the constant regions (positions not stated), DAR 3.7
B3: P-Cad mab2-L4-P1 (antibody, V domains shown)
VH: B1 VH
VL: B1 VL
modifications: maleimide linker-drug L4-P1 on engineered Cys residues of the constant regions (positions not stated), DAR 3.9
B4: P-Cad mab2-L3-P1 (antibody, V domains shown)
VH: B1 VH
VL: B1 VL
modifications: maleimide linker-drug L3-P1 on engineered Cys residues of the constant regions (positions not stated), DAR 4.0
B5: P-Cad mab2-L2-P1 (antibody, V domains shown)
VH: B1 VH
VL: B1 VL
modifications: maleimide linker-drug L2-P1 on engineered Cys residues of the constant regions (positions not stated), DAR 3.9
B6: PCAD-mab2-L7-P2 (antibody, V domains shown)
VH: B1 VH
VL: B1 VL
modifications: linker-drug L7-P2 (structure and conjugation not described in the filing)
B7: P-Cad mab2-L6-P1 (antibody, V domains shown)
VH: B1 VH
VL: B1 VL
modifications: maleimide linker-drug L6-P1 on engineered Cys residues of the constant regions (positions not stated), DAR 3.8

Columns and labels:
[1] = tested on: FaDu cells; test: CellTiter-Glo inhibition of cell proliferation and survival, FaDu; type: cell-based, human; settings: FaDu cell line
Experimental: (§1) The antibody drug conjugates were tested against four endogenous cancer cell lines and one isogenic cell line engineered to overexpress the target of interest. FaDu (ATCC No. HTB-43 cultured in Eagle's Minimum Essential Medium+10% FBS), HCC70 (ATCC No. CRL-2315 cultured in RPMI-1640+10% FBS), HCC1954 (ATCC No. CRL-2338 cultured in RPMI-1640+10% FBS) and HT-29 (ATCC No. HTB-38 cultured in McCoy's 5a Medium Modified+10% FBS). The HT-29 cell line was transfected to generate a stable HT-29 cell line expressing the exogenous protein of interest, P-cadherin, HT-29 PCAD+(cultured in McCoy's 5a Medium Modified+10% FBS).
(§2) The ability of the P-cadherin linker variant antibody drug conjugates to inhibit cell proliferation and survival was assessed using the Promega CellTiter-Glo® proliferation assay.
(§3) The cell lines were cultured in media that is optimal for their growth at 5% CO2, 37° C. in a tissue culture incubator. […] Cell viability and cell density were determined using a cell counter (Vi-Cell XR Cell Viability Analyzer, Beckman Coulter). […] Plates were incubated at 5% CO2, 37° C. for 5 days in a tissue culture incubator, after which cell viability was assessed through the addition of 25 μL of CellTiter Glo® (Promega, cat #G7573), a reagent which lyses cells and measures total adenosine triphosphate (ATP) content. […]

[2] = tested on: HCC70 cells; test: CellTiter-Glo inhibition of cell proliferation and survival, HCC70; type: cell-based, human; settings: HCC-70 cell line
Experimental: as §1, §2, §3

[3] = tested on: HT-29 cells; test: CellTiter-Glo inhibition of cell proliferation and survival, HT-29; type: cell-based, human; settings: HT-29 cell line
Experimental: as §1, §2, §3

[4] = tested on: HCC1954 cells; test: CellTiter-Glo inhibition of cell proliferation and survival, HCC1954; type: cell-based, human; settings: HCC-1954 cell line
Experimental: as §1, §2, §3

[5] = biological target: P-cadherin, exogenous, stably expressed on HT-29 PCAD+ cells (UniProt P22223 108-829, limits assumed); test: cell-based or functional assay
[6] = biological target: P-cadherin, endogenous, on HCC70 human triple negative breast cancer cells (human, UniProt P22223 108-829); test: cell-based or functional assay
[7] = value from an individual representative assay

P-cadherin, exogenous, stably expressed on HT-29 PCAD+ cells, sequence (P22223 108-829 limits assumed): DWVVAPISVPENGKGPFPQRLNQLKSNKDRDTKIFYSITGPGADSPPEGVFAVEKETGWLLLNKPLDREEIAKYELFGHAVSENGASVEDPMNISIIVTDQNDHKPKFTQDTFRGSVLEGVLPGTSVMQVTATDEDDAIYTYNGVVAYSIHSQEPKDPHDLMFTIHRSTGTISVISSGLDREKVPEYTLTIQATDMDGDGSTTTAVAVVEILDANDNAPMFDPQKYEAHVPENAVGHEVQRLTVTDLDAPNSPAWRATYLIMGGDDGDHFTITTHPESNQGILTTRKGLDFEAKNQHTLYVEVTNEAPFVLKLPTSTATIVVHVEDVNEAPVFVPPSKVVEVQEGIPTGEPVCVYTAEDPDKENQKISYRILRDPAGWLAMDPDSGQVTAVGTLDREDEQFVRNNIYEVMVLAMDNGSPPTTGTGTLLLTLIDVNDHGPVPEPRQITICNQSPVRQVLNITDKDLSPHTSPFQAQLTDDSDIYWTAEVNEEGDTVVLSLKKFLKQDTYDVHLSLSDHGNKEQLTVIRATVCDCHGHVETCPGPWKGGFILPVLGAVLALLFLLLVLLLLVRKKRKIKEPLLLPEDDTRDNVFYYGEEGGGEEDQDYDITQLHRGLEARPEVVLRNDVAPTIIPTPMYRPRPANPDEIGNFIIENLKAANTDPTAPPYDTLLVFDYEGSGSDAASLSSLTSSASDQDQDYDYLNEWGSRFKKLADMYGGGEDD
P-cadherin, endogenous, on HCC70 human triple negative breast cancer cells, sequence (P22223 108-829): as the sequence (P22223 108-829 limits assumed) above

Row | Molecule | Amax [1] | IC50 [1, 7] | Amax [2] | IC50 [2, 7] | Amax [3] | IC50 [3, 7] | Amax [4] | IC50 [4, 7] | Amax, inhibition of cell proliferation and survival (CellTiter-Glo, 5 days), HT-29 PCAD+ cells [5] | IC50 (nM), inhibition of cell proliferation and survival (CellTiter-Glo, 5 days), HT-29 PCAD+ cells [5] | Amax, inhibition of cell proliferation and survival (CellTiter-Glo, 5 days), HCC70 cells [6] | IC50 (nM), inhibition of cell proliferation and survival (CellTiter-Glo, 5 days), HCC70 cells [6]
1 | CC[C@H](C)[C@@H]([C@@H](CC(=O)N1CCC[C@H]1[C@H](OC)[C@@H](C)C(=O)N[C@H](C)[C@@H](O)c1ccccc1)OC)N(C)C(=O)[C@@H](NC(=O)[C@@H](NC)C(C)C)C(C)C [Free MMAE, monomethyl auristatin E, reference compound] (H-[NMeV]V[Dil][Dolaproine]-X1) | 108.80 | 0.032 nM | 49.22 | 0.022 nM | 102.30 | 0.012 nM | 65.26 | 0.056 nM | – | – | – | –
2 | B1 | – | – | – | – | – | – | – | – | 90 | 0.077 nM | 65.1 | 0.237 nM
3 | B2 | – | – | – | – | – | – | – | – | 91.6 | 0.075 nM | 65.9 | 0.32 nM
4 | B3 | – | – | – | – | – | – | – | – | 86.2 | 0.117 nM | 57.2 | 0.467 nM
5 | B4 | – | – | – | – | – | – | – | – | 86.8 | 0.083 nM | 105 | 1.35 nM
6 | B5 | – | – | – | – | – | – | – | – | 83.9 | 0.098 nM | 51 | 0.336 nM
7 | B6 | – | – | – | – | – | – | – | – | – | – | 171 | 0.004 nM
8 | B7 | – | – | – | – | – | – | – | – | 102 | 0.069 nM | 80.2 | 0.209 nM
